Read-outs that look alike come from different tables or passages of the source. One block for each molecule: values may come before it.
Tests used:
[1] = biological target: RNR β2 (Escherichia coli) (UniProt P69924); settings: cited from earlier work
[2] = biological target: RNR β2 (Escherichia coli) (UniProt P69924); settings: cited from earlier work; remark: listed apart in the source
[3] = biological target: T1, His6-α2 (E. coli class Ia ribonucleotide reductase α subunit, NrdA) (E. coli, UniProt P00452 1-761); assay: stopped-flow fluorescence spectroscopy
T1 sequence (looked up): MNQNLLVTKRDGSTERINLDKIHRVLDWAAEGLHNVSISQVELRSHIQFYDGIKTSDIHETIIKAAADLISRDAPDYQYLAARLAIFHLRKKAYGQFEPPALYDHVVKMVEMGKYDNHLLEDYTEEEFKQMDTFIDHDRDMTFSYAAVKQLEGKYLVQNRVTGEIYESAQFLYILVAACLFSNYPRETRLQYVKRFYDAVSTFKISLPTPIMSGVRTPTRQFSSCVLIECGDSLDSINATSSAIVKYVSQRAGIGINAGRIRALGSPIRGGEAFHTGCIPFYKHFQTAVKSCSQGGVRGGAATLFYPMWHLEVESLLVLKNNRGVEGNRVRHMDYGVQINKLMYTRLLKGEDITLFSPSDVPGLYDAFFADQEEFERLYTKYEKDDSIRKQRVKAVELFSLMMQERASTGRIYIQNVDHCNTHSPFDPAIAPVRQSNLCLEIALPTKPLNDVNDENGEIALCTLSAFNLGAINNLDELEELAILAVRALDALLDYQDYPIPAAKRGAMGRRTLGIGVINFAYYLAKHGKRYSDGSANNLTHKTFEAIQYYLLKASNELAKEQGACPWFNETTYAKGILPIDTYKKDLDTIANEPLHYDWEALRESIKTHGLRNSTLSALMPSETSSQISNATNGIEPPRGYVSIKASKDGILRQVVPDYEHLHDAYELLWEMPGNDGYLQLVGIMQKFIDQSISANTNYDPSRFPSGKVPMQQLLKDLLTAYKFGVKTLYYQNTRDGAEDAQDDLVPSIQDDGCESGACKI

[4] = biological target: dansyl-β2 (C268S/C305S/V365C-β2 labeled with BADAN) (E. coli); assay: stopped-flow fluorescence spectroscopy
[5] = biological target: dansyl-β2 (C268S/C305S/V365C-β2 labeled with BADAN) (E. coli); assay: stopped-flow fluorescence spectroscopy; remark: listed apart in the source
[6] = biological target: dansyl-β2 (C268S/C305S/V365C-β2 labeled with BADAN) (E. coli); assay: stopped-flow fluorescence spectroscopy; remark: listed apart in the source
[7] = biological target: dansyl-β2 (C268S/C305S/V365C-β2 labeled with BADAN) (E. coli); assay: stopped-flow fluorescence spectroscopy; remark: listed apart in the source

Molecule: RNR α2 (from UniProt P00452)
- Kd [1]: 200 nM
- Kd [2]: 400 nM

- binding result [3]: binds
B1: met-β2 (wt-β2 with the tyrosyl radical reduced by hydroxyurea) (enzyme, E. coli, UniProt P69924 1-376, looked up)
chain: MAYTTFSQTKNDQLKEPMFFGQPVNVARYDQQKYDIFEKLIEKQLSFFWRPEEVDVSRDRIDYQALPEHEKHIFISNLKYQTLLDSIQGRSPNVALLPLISIPELETWVETWAFSETIHSRSYTHIIRNIVNDPSVVFDDIVTNEQIQKRAEGISSYYDELIEMTSYWHLLGEGTHTVNGKTVTVSLRELKKKLYLCLMSVNALEAIRFYVSFACSFAFAERELMEGNAKIIRLIARDEALHLTGTQHMLNLLRSGADDPEMAEIAEECKQECYDLFVQAAQQEKDWADYLFRDGSMIGLNKDILCQYVEYITNIRMQAVGLDLPFQTRSNPIPWINTWLVSDNVQVAPQEVEVSSYLVGQIDSEVDTDDLSNFQL
modifications: diferric center, Y122• reduced by hydroxyurea

- kon [4]: 1.79e+08 M⁻¹ s⁻¹
- kon [5]: 1.56e+08 M⁻¹ s⁻¹
- kon [6]: 1.93e+08 M⁻¹ s⁻¹
- k dissoc, faster phase of the biexponential decay (α4β4 state, with dATP) [7]: 7 s⁻¹
- k dissoc, slower phase of the biexponential decay (α4β4 state, with dATP) [7]: 0.46 s⁻¹
- koff [7]: 109 s⁻¹
- kon [7]: 1.63e+08 M⁻¹ s⁻¹
B2: His6-α2 (E. coli class Ia ribonucleotide reductase α subunit, NrdA) (enzyme)
chain: MNQNLLVTKRDGSTERINLDKIHRVLDWAAEGLHNVSISQVELRSHIQFYDGIKTSDIHETIIKAAADLISRDAPDYQYLAARLAIFHLRKKAYGQFEPPALYDHVVKMVEMGKYDNHLLEDYTEEEFKQMDTFIDHDRDMTFSYAAVKQLEGKYLVQNRVTGEIYESAQFLYILVAACLFSNYPRETRLQYVKRFYDAVSTFKISLPTPIMSGVRTPTRQFSSCVLIECGDSLDSINATSSAIVKYVSQRAGIGINAGRIRALGSPIRGGEAFHTGCIPFYKHFQTAVKSCSQGGVRGGAATLFYPMWHLEVESLLVLKNNRGVEGNRVRHMDYGVQINKLMYTRLLKGEDITLFSPSDVPGLYDAFFADQEEFERLYTKYEKDDSIRKQRVKAVELFSLMMQERASTGRIYIQNVDHCNTHSPFDPAIAPVRQSNLCLEIALPTKPLNDVNDENGEIALCTLSAFNLGAINNLDELEELAILAVRALDALLDYQDYPIPAAKRGAMGRRTLGIGVINFAYYLAKHGKRYSDGSANNLTHKTFEAIQYYLLKASNELAKEQGACPWFNETTYAKGILPIDTYKKDLDTIANEPLHYDWEALRESIKTHGLRNSTLSALMPSETSSQISNATNGIEPPRGYVSIKASKDGILRQVVPDYEHLHDAYELLWEMPGNDGYLQLVGIMQKFIDQSISANTNYDPSRFPSGKVPMQQLLKDLLTAYKFGVKTLYYQNTRDGAEDAQDDLVPSIQDDGCESGACKI
